The target in assay [1] is T1, B7H3 (UniProt Q5ZPR3 29-534, limits assumed).
T1 construct: whole, on cells; also called CD276
T1 sequence (looked up): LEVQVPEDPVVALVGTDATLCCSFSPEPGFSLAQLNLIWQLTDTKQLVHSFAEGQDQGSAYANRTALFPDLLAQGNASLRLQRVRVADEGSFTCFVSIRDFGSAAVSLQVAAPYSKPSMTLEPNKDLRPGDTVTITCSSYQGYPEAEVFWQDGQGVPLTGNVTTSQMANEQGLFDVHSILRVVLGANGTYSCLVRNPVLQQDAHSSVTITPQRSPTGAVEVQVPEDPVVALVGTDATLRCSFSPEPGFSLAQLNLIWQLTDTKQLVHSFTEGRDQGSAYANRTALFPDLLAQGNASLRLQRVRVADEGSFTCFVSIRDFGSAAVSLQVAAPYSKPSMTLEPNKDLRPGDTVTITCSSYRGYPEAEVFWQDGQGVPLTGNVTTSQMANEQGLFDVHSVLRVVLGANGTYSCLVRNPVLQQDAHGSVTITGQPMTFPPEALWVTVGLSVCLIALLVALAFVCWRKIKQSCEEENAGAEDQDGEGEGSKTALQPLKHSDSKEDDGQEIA
In words: flow cytometry on A375 cells.

Assay [2] has as its target T2, DLL3 (human, UniProt Q9NYJ7 27-618).
T2 construct: also called Delta-like 3; Human DLL3
T2 sequence: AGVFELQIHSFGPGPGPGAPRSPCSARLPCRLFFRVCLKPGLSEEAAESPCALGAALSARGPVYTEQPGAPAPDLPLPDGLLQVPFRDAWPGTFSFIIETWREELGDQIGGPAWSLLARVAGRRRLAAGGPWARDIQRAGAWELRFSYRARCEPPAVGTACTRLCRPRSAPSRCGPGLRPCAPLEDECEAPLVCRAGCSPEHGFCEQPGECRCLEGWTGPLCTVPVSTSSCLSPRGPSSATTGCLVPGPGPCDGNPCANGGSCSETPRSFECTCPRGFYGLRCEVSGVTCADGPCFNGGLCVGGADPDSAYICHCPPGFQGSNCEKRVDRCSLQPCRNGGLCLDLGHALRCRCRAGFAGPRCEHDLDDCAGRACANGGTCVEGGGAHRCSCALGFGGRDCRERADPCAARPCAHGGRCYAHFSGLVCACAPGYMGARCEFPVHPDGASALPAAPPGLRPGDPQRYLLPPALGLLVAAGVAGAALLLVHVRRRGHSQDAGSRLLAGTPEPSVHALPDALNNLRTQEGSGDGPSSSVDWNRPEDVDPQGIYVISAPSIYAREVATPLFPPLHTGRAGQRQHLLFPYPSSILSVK
Nature of the assay: flow cytometry on SHP-77 cells, anti-human IgG Fc secondary. The protocol: (§1) Binding of exemplary multispecific constructs containing an antigen-binding domain directed against DLL3 were assessed for binding to DLL3 positive SHP-77 tumor cells or primary T-cells. […] These binding assays were conducted by flow cytometry, wherein bound constructs were detected using a fluorophore-conjugated anti-human IgG Fc secondary antibody.
(In general: Flow cytometry measures light scatter and fluorescence of single cells or particles in a stream.)

In assay [3] the target is T3, CD3 (human, UniProt P07766 23-207).
T3 construct: whole, on cells; CD3 is a multi-chain complex; also called CD3ε; CD3 on the surface of primary T cells
In words: flow cytometry on primary T cells, anti-human IgG Fc secondary. The procedure:
as §1

Results on four molecules are retold here after patent publication US20200048350A1 (INHIBRX BIOSCIENCES, published 2020).

T3 sequence (P07766 23-207): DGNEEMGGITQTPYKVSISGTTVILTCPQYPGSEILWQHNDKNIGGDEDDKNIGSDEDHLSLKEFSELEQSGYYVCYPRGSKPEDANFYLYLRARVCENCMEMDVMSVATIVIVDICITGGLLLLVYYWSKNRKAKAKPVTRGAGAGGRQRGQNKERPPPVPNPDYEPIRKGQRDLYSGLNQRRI

B1: DART-Fc B7H3xCD3 (bispecific antibody)
chain 1: DIQLTQSPSFLSASVGDRVTITCKASQNVDTNVAWYQQKPGKAPKALIYSASYRYSGVPSRFSGSGSGTDFTLTISSLQPEDFATYYCQQYNNYPFTFGQGTKLEIKGGGSGGGGEVQLVESGGGLVQPGGSLRLSCAASGFTFSTYAMNWVRQAPGKGLEWVGRIRSKYNNYATYYADSVKDRFTISRDDSKNSLYLQMNSLKTEDTAVYYCVRHGNFGNSYVSWFAYWGQGTLVTVSSGGCGGGEVAALEKEVAALEKEVAALEKEVAALEKGGGDKTHTCPPCPAPEAAGGPSVFLFPPKPKDTLMISRTPEVTCVVVDVSHEDPEVKFNWYVDGVEVHNAKTKPREEQYNSTYRVVSVLTVLHQDWLNGKEYKCKVSNKALPAPIEKTISKAKGQPREPQVYTLPPSREEMTKNQVSLWCLVKGFYPSDIAVEWESNGQPENNYKTTPPVLDSDGSFFLYSKLTVDKSRWQQGNVFSCSVMHEALHNHYTQKSLSLSPGK
chain 2: QAVVTQEPSLTVSPGGTVTLTCRSSTGAVTTSNYANWVQQKPGQAPRGLIGGTNKRAPWTPARFSGSLLGGKAALTITGAQAEDEADYYCALWYSNLWVFGGGTKLTVLGGGGSGGGGEVQLVESGGGLVQPGGSLRLSCAASGFTFSSFGMHWVRQAPGKGLEWVAYISSDSSAIYYADTVKGRFTISRDNAKNSLYLQMNSLRDEDTAVYYCGRGRENIYYGSRLDYWGQGTTVTVSSGGCGGGKVAALKEKVAALKEKVAALKEKVAALKE
chain 3: not shown
notes: Comparator; also called DART-Fc format B7H3xCD3; B7-H3 x CD3 Bispecific DART-A Diabody
For B1, in assay [1], the binding result is on record as “binds”.

B2: cx5352 (other)
chain 1: EVQLVESGGGEVQPGGSLRLSCAASGSIFSINAMGWYRQAPGKQRELVAGFTGDTNTIYAESVKGRFTISRDNAKNTVYLQMSSLRAEDTAVYYCAADVQLFSRDYEFYWGQGTLVTVKPPGGGGDKTHTCPPCPAPGGPSVFLFPPKPKDTLMISRTPEVTCVVVDVSHEDPEVKFNWYVDGVEVHNAKTKPREEQYNSTYRVVSVLTVLHQDWLNGKEYKCKVSNKALPAPIEKTISKAKGQPREPQVYTLPPCRDELTKNQVSLWCLVKGFYPSDIAVEWESNGQPENNYKTTPPVLDSDGSFFLYSKLTVDKSRWQQGNVFSCSVMHEALHNHYTQKSLSLSPTGGGGGSGGGGGSGGGGGSEVQLVESGGGLVQPGGSLRLSCAASGFTFNTYAMNWVRQAPGKCLEWVARIRSKYNNYATYYADSVKGRFTISRDDAKNTLYLQMSSLRAEDTAVYYCVRHGNFGNSYVSWFAYWGQGTLVTVKPGGGGEVQLVESGGGEVQPGGSLRLSCGPSEIITSDKSMGWVRQAPGKQRNLVAGISNVGSTNYAQSVKGRFTISRDNAKNTVYLQMSSLRAEDTAVYYCYARDFENEYWGQGTLVTVKP
chain 2: DKTHTCPPCPAPGGPSVFLFPPKPKDTLMISRTPEVTCVVVDVSHEDPEVKFNWYVDGVEVHNAKTKPREEQYNSTYRVVSVLTVLHQDWLNGKEYKCKVSNKALPAPIEKTISKAKGQPREPQVCTLPPSRDELTKNQVSLSCAVKGFYPSDIAVEWESNGQPENNYKTTPPVLDSDGSFFLVSKLTVDKSRWQQGNVFSCSVMHEALHNRYTQKSLSLSPTGGGGGSGGGGGSGGGGGSQAVVTQEPSLTVSPGGTVTLTCGSSTGAVTTSNYANWVQQKPGQAFRGLIGGTNKRAPGVPARFSGSLLGGKAALTISGAQPEDEADYYCALWYSNHWVFGCGTKLEIKGGGGEVQLLESGGGEVQPGGSLRLSCAASGFSFSINAMGWYRQAPGKRREFVAAIESGRNTVYAESVKGRFTISRDNAKNTVYLQMSSLRAEDTAVYYCGLLKGNRVVSPSVAYWGQGTLVTVKP
notes: Fc alternatives printed; first written; Short peptide linkers only 'e.g.'
On to B2, for which the binding result in assay [2] is “binds”; in assay [3] it was “no binding”.

B3: cx5801 (other)
chain 1: DKTHTCPPCPAPGGPSVFLFPPKPKDTLMISRTPEVTCVVVDVSHEDPEVKFNWYVDGVEVHNAKTKPREEQYNSTYRVVSVLTVLHQDWLNGKEYKCKVSNKALPAPIEKTISKAKGQPREPQVYTLPPCRDELTKNQVSLWCLVKGFYPSDIAVEWESNGQPENNYKTTPPVLDSDGSFFLYSKLTVDKSRWQQGNVFSCSVMHEALHNHYTQKSLSLSPTGGGGGSGGGGGSGGGGGSEVQLVESGGGLVQPGGSLRLSCAASGFTFNTYAMNWVRQAPGKCLEWVARIRSKYNNYATYYADSVKGRFTISRDDAKNTLYLQMSSLRAEDTAVYYCVRHGNFGNSYVSWFAYWGQGTLVTVKPGGGGEVQLVESGGGEVQPGGSLRLSCGPSEIITSDKSMGWVRQAPGKQRNLVAGISNVGSTNYAQSVKGRFTISRDNAKNTVYLQMSSLRAEDTAVYYCYARDFENEYWGQGTLVTVKP
chain 2: DKTHTCPPCPAPGGPSVFLFPPKPKDTLMISRTPEVTCVVVDVSHEDPEVKFNWYVDGVEVHNAKTKPREEQYNSTYRVVSVLTVLHQDWLNGKEYKCKVSNKALPAPIEKTISKAKGQPREPQVCTLPPSRDELTKNQVSLSCAVKGFYPSDIAVEWESNGQPENNYKTTPPVLDSDGSFFLVSKLTVDKSRWQQGNVFSCSVMHEALHNRYTQKSLSLSPTGGGGGSGGGGGSGGGGGSQAVVTQEPSLTVSPGGTVTLTCGSSTGAVTTSNYANWVQQKPGQAFRGLIGGTNKRAPGVPARFSGSLLGGKAALTISGAQPEDEADYYCALWYSNHWVFGCGTKLEIKGGGGEVQLLESGGGEVQPGGSLRLSCAASGFSFSINAMGWYRQAPGKRREFVAAIESGRNTVYAESVKGRFTISRDNAKNTVYLQMSSLRAEDTAVYYCGLLKGNRVVSPSVAYWGQGTLVTVKP
notes: Fc alternatives printed; first written; Short peptide linkers only 'e.g.'; also called monovalent DLL3-targeted constrained CD3 engaging construct (C-terminal sdAb)
On to B3, for which the binding result in assay [2] is reported as “binds”; in assay [3], “no binding”.

B4: cx5800 (other)
chain 1: EVQLVESGGGEVQPGGSLRLSCAASGSIFSINAMGWYRQAPGKQRELVAGFTGDTNTIYAESVKGRFTISRDNAKNTVYLQMSSLRAEDTAVYYCAADVQLFSRDYEFYWGQGTLVTVKPPGGGGDKTHTCPPCPAPGGPSVFLFPPKPKDTLMISRTPEVTCVVVDVSHEDPEVKFNWYVDGVEVHNAKTKPREEQYNSTYRVVSVLTVLHQDWLNGKEYKCKVSNKALPAPIEKTISKAKGQPREPQVYTLPPCRDELTKNQVSLWCLVKGFYPSDIAVEWESNGQPENNYKTTPPVLDSDGSFFLYSKLTVDKSRWQQGNVFSCSVMHEALHNHYTQKSLSLSPTGGGGGSGGGGGSGGGGGSEVQLVESGGGLVQPGGSLRLSCAASGFTFNTYAMNWVRQAPGKCLEWVARIRSKYNNYATYYADSVKGRFTISRDDAKNTLYLQMSSLRAEDTAVYYCVRHGNFGNSYVSWFAYWGQGTLVTVKP
chain 2: DKTHTCPPCPAPGGPSVFLFPPKPKDTLMISRTPEVTCVVVDVSHEDPEVKFNWYVDGVEVHNAKTKPREEQYNSTYRVVSVLTVLHQDWLNGKEYKCKVSNKALPAPIEKTISKAKGQPREPQVCTLPPSRDELTKNQVSLSCAVKGFYPSDIAVEWESNGQPENNYKTTPPVLDSDGSFFLVSKLTVDKSRWQQGNVFSCSVMHEALHNRYTQKSLSLSPTGGGGGSGGGGGSGGGGGSQAVVTQEPSLTVSPGGTVTLTCGSSTGAVTTSNYANWVQQKPGQAFRGLIGGTNKRAPGVPARFSGSLLGGKAALTISGAQPEDEADYYCALWYSNHWVFGCGTKLEIKGGGGEVQLLESGGGEVQPGGSLRLSCAASGFSFSINAMGWYRQAPGKRREFVAAIESGRNTVYAESVKGRFTISRDNAKNTVYLQMSSLRAEDTAVYYCGLLKGNRVVSPSVAYWGQGTLVTVKP
notes: Fc alternatives printed; first written; Short peptide linkers only 'e.g.'; also called monovalent DLL3-targeted constrained CD3 engaging construct (N-terminal sdAb)
Consider B4, for which the binding result in assay [2] is on record as “binds”; in assay [3] it was “no binding”.
